Experimental data: patent US20250215104A1 (WALDEN BIOSCIENCES, published 2025)
Substitutions are numbered along the chain they refer to.

B1: suPAR_DB02_A12 (scFv, V domains shown)
VH: QVQLVQSGAEVKKPGASVKVSCKASGYTFTNYYMHWVRQAPGQGLEWMGWIDHENGSTIYAQKFQGRVTMTRDTSTSTVYMELSSLRSEDTAVYYCARGYDMDWFVYWGQGTLVTVSS
VL: DIQMTQSPSSLSASVGDRVTITCSARSSVSYMYWYQQKPGKAPKLLIYRTSNLASGVPSRFSGSGSGTDFTLTISSLQPEDFATYYCQQYHSYPPTFGGGTKVEIK
notes: Screened as scFv
B2: suPAR_DB01_H08 (scFv, V domains shown)
VH: QVQLVQSGAEVKKPGASVKVSCKASGFNIKDYYIHWVRQAPGQGLEWMGWIDPNGGGTQYAQKFQGRVTMTRDTSTSTVYMELSSLRSEDTAVYYCARGYDVDWFVYWGQGTLVTVSS
VL: B1 VL with S24R, R26S, A54Q
notes: Screened as scFv
B3: suPAR_DB02_B01 (scFv, V domains shown)
VH: B1 VH with N31G, Y32H, M34V, S57N, A61D, M102V
VL: B1 VL with S27Q
notes: Screened as scFv
B4: suPAR_DB02_B05 (scFv, V domains shown)
VH: B1 VH with N31S, S57N, I59S, M102V
VL: B1 VL with S24R, S27Q
notes: Screened as scFv
B5: suPAR_DB02_C02 (scFv, V domains shown)
VH: B1 VH with T30K, N31S, S57N, A61D, R98S, M102V
VL: B1 VL
notes: Screened as scFv
B6: suPAR_DB02_B08 (scFv, V domains shown)
VH: B1 VH with T28S, I59S, A61D, M102V
VL: B1 VL
notes: Screened as scFv
B7: suPAR_DB02_C04 (scFv, V domains shown)
VH: B2 VH with P53H, N54E, G57S, Q59S, A61D
VL: B1 VL
notes: Screened as scFv
B8: suPAR_DB02_B03 (scFv, V domains shown)
VH: B1 VH with T30I, N31G, Y32N, M34I, A61D, Y100S, M102V
VL: B1 VL
notes: Screened as scFv
B9: suPAR_DB02_B09 (scFv, V domains shown)
VH: B1 VH with N31G, M34V, E54S, S57N, A61D, R98S, M102V
VL: B1 VL
notes: Screened as scFv
B10: suPAR_DB02_B04 (scFv, V domains shown)
VH: B1 VH with N31G, Y32H, S57N, A61D, M102V
VL: B1 VL
notes: Screened as scFv
B11: suPAR_DB02_C01 (scFv, V domains shown)
VH: B1 VH with N31G, H53P, A61D, M102V
VL: B1 VL with S24R, S27Q
notes: Screened as scFv
B12: suPAR_DB02_B06 (scFv, V domains shown)
VH: B1 VH with Y27D, N31S, N55G, K63Q, M102V
VL: B1 VL
notes: Screened as scFv
B13: suPAR_DB02_C05 (scFv, V domains shown)
VH: B1 VH with Y27G, T30S, N31S, S57N, A61D, M102V
VL: B1 VL
notes: Screened as scFv
B14: suPAR_DB02_B10 (scFv, V domains shown)
VH: B1 VH with H53P, S57N, I59S, A61D, M102V
VL: B1 VL with S24R, S27Q
notes: Screened as scFv
B15: suPAR_DB02_B07 (scFv, V domains shown)
VH: B1 VH with Y27H, T30S, N31S, H53P, S57N, M102V
VL: B1 VL with S27Q, V29I
notes: Screened as scFv
B16: suPAR_DB05_B12 (scFv, V domains shown)
VH: B1 VH with H53P, S57N, M102V
VL: B1 VL with S27Q
notes: Screened as scFv
B17: suPAR_DB05_A05 (scFv, V domains shown)
VH: B1 VH with H53P, E54S, N55G, I59S, M102V
VL: B1 VL with S24R, S27Q
notes: Screened as scFv
B18: suPAR_DB05_B04 (scFv, V domains shown)
VH: B1 VH with N31T, H53P, E54S, S57N, A61D, M102V
VL: B1 VL
notes: Screened as scFv
B19: suPAR_DB05_B06 (scFv, V domains shown)
VH: B1 VH with T28P, N55G, A61D, M102V
VL: B1 VL with R26S, S27Q
notes: Screened as scFv
B20: suPAR_DB05_B09 (scFv, V domains shown)
VH: B1 VH with N31G, H53P, E54S, N55G, S57N, A61D, M102V
VL: B1 VL
notes: Screened as scFv
B21: suPAR_DB05_B02 (scFv, V domains shown)
VH: B2 VH with F27Y, N28T, N54E, G55N, G57N, Q59I
VL: B1 VL
notes: Screened as scFv
B22: suPAR_DB04_H08 (scFv, V domains shown)
VH: B2 VH with F27Y, N28T, I29F, K30S, D52S, N54K, G55S, G57V, Q59N
VL: B1 VL with R26S, S27Q
notes: Screened as scFv
B23: suPAR_DB04_H07 (scFv, V domains shown)
VH: B1 VH with N31S, S57N, I59S, A61D, M102V
VL: B1 VL with S24R
notes: Screened as scFv
B24: suPAR_DB04_H09 (scFv, V domains shown)
VH: QVQLVQSGAEVKKPGASVKVSCKASGGTFSGYYMHWVRQAPGQGLEWVGWITPDSGATAYAQKFQGRVTMTRDTSTSTVYMELSSLRSEDTAVYYCARGYDVDWFVYWGQGTLVTVSS
VL: B1 VL with S27Q
notes: Screened as scFv
B25: suPAR_DB05_A07 (scFv, V domains shown)
VH: B1 VH with H35Q, S57N, M102V
VL: B1 VL with S27Q
notes: Screened as scFv
B26: suPAR_DB04_H03 (scFv, V domains shown)
VH: B1 VH with N31G, Y32N, M34L, E54S, A61D, Y100S, M102V
VL: B1 VL with R26S
notes: Screened as scFv
B27: suPAR_DB05_C02 (scFv, V domains shown)
VH: B1 VH with Y27D, N31S, H53P, E54S, S57N, A61D, M102V
VL: B1 VL
notes: Screened as scFv
B28: suPAR_DB05_A06 (scFv, V domains shown)
VH: B1 VH with N31S, Y32H, M34V, S57N, A61D, M102V
VL: B1 VL
notes: Screened as scFv
B29: suPAR_DB05_B01 (scFv, V domains shown)
VH: B1 VH with T28P, N31S, S57N, A61D, M102V
VL: B1 VL with R26S
notes: Screened as scFv
B30: suPAR_DB05_B08 (scFv, V domains shown)
VH: B1 VH with Y27N, T28A, T30S, N31G, Y32H, M34V, S57N, M102V
VL: B1 VL with S27Q
notes: Screened as scFv
B31: suPAR_DB05_A11 (scFv, V domains shown)
VH: B24 VH with G27Y, S30T, V48M, T52D, D54N, A57G, A59N
VL: B1 VL
notes: Screened as scFv
B32: suPAR_DB05_A10 (scFv, V domains shown)
VH: B1 VH with M34I, H53P, E54S, S57N, A61D, M102V
VL: B1 VL
notes: Screened as scFv
B33: suPAR_DB05_B05 (scFv, V domains shown)
VH: B24 VH with G27N, M34V, V48M, T52D, D54S, S55N, A57N, A59I, A61D
VL: B1 VL
notes: Screened as scFv
B34: suPAR_DB04_H06 (scFv, V domains shown)
VH: B1 VH with M34V, S57N, I59S, M102V
VL: B1 VL with A54Q
notes: Screened as scFv
B35: suPAR_DB04_H05 (scFv, V domains shown)
VH: B1 VH with Y27H, F29L, T30N, N31S, H53P, N55G, S57N, M102V
VL: B1 VL
notes: Screened as scFv
B36: suPAR_DB04_H10 (scFv, V domains shown)
VH: B24 VH with G27Y, S30T, G31S, V48M, T52S, A57G, A59N
VL: B1 VL with S24R
notes: Screened as scFv
B37: suPAR_DB05_B11 (scFv, V domains shown)
VH: B1 VH with T30S, N31A, S57N, M102V
VL: B1 VL
notes: Screened as scFv
B38: suPAR_DB05_B03 (scFv, V domains shown)
VH: B24 VH with G27Y, S30T, G31S, M34I, V48I, I51M, T52D, D54N, A57S, T58A
VL: B1 VL
notes: Screened as scFv
B39: suPAR_DB05_A08 (scFv, V domains shown)
VH: B1 VH with H53S, E54N, N55S, S57G, I59N, M102V
VL: B1 VL
notes: Screened as scFv

Target: T1, human soluble urokinase plasminogen activator receptor (hsuPAR) (human, UniProt Q03405 23-303, limits assumed)
T1 construct: also called human suPAR; rhuPAR-His
T1 sequence (Q03405 23-303 limits assumed): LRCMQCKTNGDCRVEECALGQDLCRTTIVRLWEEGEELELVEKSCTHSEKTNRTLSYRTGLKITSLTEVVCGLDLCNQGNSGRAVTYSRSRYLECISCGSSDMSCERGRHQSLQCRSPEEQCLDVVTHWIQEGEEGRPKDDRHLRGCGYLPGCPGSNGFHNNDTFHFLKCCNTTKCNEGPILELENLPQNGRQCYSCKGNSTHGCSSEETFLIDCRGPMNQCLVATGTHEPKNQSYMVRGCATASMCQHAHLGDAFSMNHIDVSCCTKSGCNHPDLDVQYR
Experiment: BLI (Octet) off-rate screen of scFv

Row | koff [s⁻¹] | Binder
1 | 0.0017 | B1
2 | 0.00281 | B2
3 | 0.00253 | B3
4 | 0.0041 | B4
5 | 0.00429 | B5
6 | 0.00155 | B6
7 | 0.00128 | B7
8 | 0.00088 | B8
9 | 0.00422 | B9
10 | 0.00477 | B10
11 | 0.00465 | B11
12 | 0.00353 | B12
13 | 0.00504 | B13
14 | 0.00189 | B14
15 | 0.00447 | B15

Target: T2, cynomolgus soluble urokinase plasminogen activator receptor (cynomolgus suPAR) (cynomolgus, UniProt Q9GK78 23-303, limits assumed)
T2 construct: also called cynomolgus uPAR; cynoPLAUR-His
T2 sequence (Q9GK78 23-303 limits assumed): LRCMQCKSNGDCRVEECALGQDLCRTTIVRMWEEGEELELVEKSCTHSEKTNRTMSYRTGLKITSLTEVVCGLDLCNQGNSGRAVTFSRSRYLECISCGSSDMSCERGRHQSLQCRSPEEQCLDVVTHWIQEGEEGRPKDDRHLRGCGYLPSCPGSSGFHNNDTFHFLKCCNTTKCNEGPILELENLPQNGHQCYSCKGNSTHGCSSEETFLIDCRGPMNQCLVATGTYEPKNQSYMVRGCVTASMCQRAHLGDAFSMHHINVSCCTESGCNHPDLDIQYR
Experiment: BLI (Octet) off-rate screen of scFv

Row | koff [s⁻¹] | Binder
16 | 2.26e-05 | B1
17 | 0.00038 | B2
18 | 0.000363 | B3
19 | 0.000199 | B4
20 | 3.58e-05 | B5
21 | 8.61e-05 | B6
22 | 0.00132 | B7
23 | 0.000424 | B8
24 | 0.000208 | B9
25 | 0.000185 | B10
26 | 0.00025 | B11
27 | 0.000127 | B12
28 | 0.000285 | B13
29 | 0.000434 | B14
30 | 8.12e-05 | B15

Target: T3, human soluble urokinase plasminogen activator receptor (suPAR) (human, UniProt Q03405 23-303, limits assumed)
T3 construct: Column head says only 'human'; also called hsuPAR; human suPAR
T3 sequence (Q03405 23-303 limits assumed): as the sequence (Q03405 23-303 limits assumed) above
Experiment: BLI (Octet) off-rate screen of scFv clones

Row | koff [s⁻¹] | Binder
31 | 0.00472 | B16
32 | 0.00553 | B17
33 | 0.00623 | B18
34 | 0.00213 | B19
35 | 0.00273 | B20
36 | 0.00565 | B21
37 | 0.0034 | B22
38 | 0.00511 | B23
39 | 0.00475 | B24
40 | 0.00495 | B25
41 | 0.00134 | B26
42 | 0.00375 | B27
43 | 0.00352 | B28
44 | 0.00356 | B29
45 | 0.00488 | B30
46 | 0.0018 | B31
47 | 0.00541 | B32
48 | 0.00417 | B33
49 | 0.00926 | B34
50 | 0.00584 | B35
51 | 0.00354 | B36
52 | 0.00219 | B37
53 | 0.00366 | B38
54 | 0.00307 | B39

Target: T4, cynomolgus soluble urokinase plasminogen activator receptor (suPAR) (cynomolgus, UniProt Q9GK78 23-303, limits assumed)
T4 construct: Column head says only 'cynomologus'; also called cynomolgus suPAR; cynomolgus uPAR
T4 sequence (Q9GK78 23-303 limits assumed): as the sequence (Q9GK78 23-303 limits assumed) above
Experiment: BLI (Octet) off-rate screen of scFv clones

Row | koff [s⁻¹] | Binder
55 | 0.000383 | B16
56 | 0.000639 | B17
57 | 0.000606 | B18
58 | 0.000234 | B19
59 | 0.000583 | B20
60 | 0.000419 | B21
61 | 5.42e-07 | B22
62 | 0.000249 | B23
63 | 8.8e-05 | B24
64 | 0.00029 | B25
65 | 0.000226 | B26
66 | 0.00061 | B27
67 | 0.000277 | B28
68 | 0.000232 | B29
69 | 0.000129 | B30
70 | 0.000311 | B31
71 | 0.000462 | B32
72 | 0.000193 | B33
73 | 0.000289 | B34
74 | 0.000182 | B35
75 | 0.000323 | B36
76 | 0.000431 | B37
77 | 0.000311 | B38
78 | 9.8e-05 | B39
